Results on 30 sequences are retold here after the nanobody polyreactivity screen of Harvey et al. (2022).

The data set is described as follows: yeast display, Sf9 membrane polyspecificity reagent, FACS + sequencing; frameworks hold sequencing errors. The procedure, abridged: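 Nanobodies came from a synthetic yeast display library in Saccharomyces cerevisiae BJ5465, induced with galactose for 36–48 hours and stained for 1 hour at 4 °C with 10% biotinylated, detergent-solubilized Sf9 membrane reagent. Cells were enriched on streptavidin microbeads and then FACS-sorted, with low and high (top ~1%) gates set on anti-HA fluorescence for expression and streptavidin fluorescence for reagent binding. Each polyreactivity label reflects the gate a clone came from. Genes were amplified by colony PCR, sequenced by MiSeq 2 × 250 and filtered by CDR length.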
Regarding “QVQLVESGGGLVQAGGSLRLSCAASGSTFSYNAMGWYRQAPGKVRELVASINSRGGTTYYADSVKGRFTISRDNAKNTVYLQMNSRKPEDTAVYYCATDVYRLGEYDYWGQGTQVTVSS”, the “polyreactivity (PSR sort gate)” value is on record as “low polyreactivity”.

Consider “QVQLVESGGGLVQAGGSLRLSCAASGSTFSYNDMGWYRQAPGKERELVAAITDSDGNTDYADSVKGRFTISRDKAKNTVYLQMNSLKPEDTAVYYCAAYYYGSVAQDREYWGQGTQVTVSS”, for which the “polyreactivity (PSR sort gate)” value is “high polyreactivity”.

Turning to “QVQLVESGGGLVQAGGSLRLSCAASGSTFSYYAMGWYRQAPGKEMELVAAIRSGGSTYYADSVKGRFTISRDNAKNTVYLQMNSLKPEDTAVYYCNADYIRASTLKYGTIYYWHYDYWGQGTQVTVSS”, the “polyreactivity (PSR sort gate)” value is reported as “high polyreactivity”.

“QVQLVESGGGLVQAGGSLRLSCAASGSTFSYYAMGWYRQAPGKERDLVASIDGSTGSTYYADSVKGRFTISRDNAKTTVYLQMNILKPEDTAVYYFNAESLDYYDNAYEYWGQGTQVTVSS”: the “polyreactivity (PSR sort gate)” value is listed as “low polyreactivity”.

On to “QVQLVESGGGLVQAGGSLRLSCAASGSTFSYYAMGWYRQAPGKERELVAAITKRGGSTYYADSVKGRFTISRDNAKNTVYLQMNSLKPEVTAVYYCAAKRKSYYSYNFDYWGQGTQVTVSS”, for which the “polyreactivity (PSR sort gate)” value was “high polyreactivity”.

Regarding “QVQLVESGGGLVQAGGSLRLSCAASGSTFSYYAMGWYRQAPGKERELVARISWRGGSTYYADSVKGRFTISRDNAKNTVYLQMNSLKPEDTAVYYCAARRSGTYYGTYKSNGRNYWGQGTQVTVSS”, the “polyreactivity (PSR sort gate)” value was “high polyreactivity”.

For the sequence “QVQLVESGGGLVQAGGSLRLSCAASGSTFSYYAMGWYRQAPGKEWELVAAIRSGGSTYYADSVKGRFTISRDNAKNTVYLQMNSLKPEDTAVYYCNADYIRASTLNYGTIYYWHYDYWGQGTQVTVSS”, the “polyreactivity (PSR sort gate)” value is “high polyreactivity”.

For “QVQLVESGGGLVQAGGSLRLSCAASGSTFSYYDMGWYRQAPGKERELVAAISWNGGTTYYADSVKGRFTISRDNAKNTVYLQMNSLKPEDTAVYYCAATWDFYWAPYDSWGQGTQVTVSS”, the “polyreactivity (PSR sort gate)” value was “low polyreactivity”.

For the sequence “QVQLVESGGGLVQAGGSLRLSCAASGSTFSYYGMGWYRPAPGKERELVAAIDYSGDSTYYADSVKARFTISRDNAKNTVYLQMNSLKPEDTAVYYCAADDYPWNRYEYWGQGTQVTVSS”, the “polyreactivity (PSR sort gate)” value is recorded as “low polyreactivity”.

“QVQLVESGGGLVQAGGSLRLSCAASGSTFSYYPMGWYRQAPGKERELVATISKRGGTTSYADSVKGRFTISRDNAKNTVYLQMISLKPEDTAVYYCAARYSKVHYAYDYWGQGTQVTVSS”: the “polyreactivity (PSR sort gate)” value is “high polyreactivity”.

Regarding “QVQLVESGGGLVQAGGSLRLSCAASGSTFTANAMGWYRQAPGTERELVAAISRSGGSTYYADSVKGRFTISRDNAKYTVYLQLNSLKPEDTAVYYCAAECPLFSPPDGEDYWGQGTLVTVSS”, the “polyreactivity (PSR sort gate)” value is “low polyreactivity”.

Turning to “QVQLVESGGGLVQAGGSLRLSCAASGSTFTAYAMGWYRHAPGKERELVAGITGNGGSTRYADSVKGRFTISRDNAKNTVYVQMNSLKPEDTAFYYCAARWTRQRYRTSYYSWGQGTQVTVSS”, the “polyreactivity (PSR sort gate)” value is on record as “high polyreactivity”.

As to “QVQLVESGGGLVQAGGSLRLSCAASGSTFTAYVMGWYRQAPGKERELVAAISSSGGRTYYADSVKGRFTISRDNAKNTVYLQMNSLKPEDTAVYYCAARSGPLAYDYWGQGTQVTVSS”, the “polyreactivity (PSR sort gate)” value is “high polyreactivity”.

“QVQLVESGGGLVQAGGSLRLSCAASGSTFTDNAMGWYRQAPGKETELVAAINGSGDITYYADSVKGRFTISRDYAKNTVYLQMKSLKPEDTAVYYCATRTQYKTWYGAYYYWGQGTQVTVSS”: the “polyreactivity (PSR sort gate)” value is recorded as “low polyreactivity”.

As to “QVQLVESGGGLVQAGGSLRLSCAASGSTFTDYAMGWYRQAPGKERELVAAIRFSGGSTYYADSVKGRFTISRDNAKNTVYLQMNSLKPEDTAVYYCAAGGYPWLDSWGQGTQVTVSS”, the “polyreactivity (PSR sort gate)” value was “low polyreactivity”.

In the case of “QVQLVESGGGLVQAGGSLRLSCAASGSTFTDYDMGWYRPAPGKERELVAAISSGGSTYYADSVKGRFTISRDNAKNTVYLQMNSLKPEDTAVYYCAAVLGVWGGVGSEGDYWGQGTQVTVSS”, the “polyreactivity (PSR sort gate)” value is “low polyreactivity”.

For “QVQLVESGGGLVQAGGSLRLSCAASGSTFTFNAMGWYRQAPGKERELVAAITTSAGSTYYADSVKGRFTISRDNAKNTVYLQMNSLKPEDTAVYYCAARYVPPWGRRYYYWGQGTQVTVSS”, the “polyreactivity (PSR sort gate)” value is on record as “high polyreactivity”.

Take “QVQLVESGGGLVQAGGSLRLSCAASGSTFTFYFMGWYRQAPGKERELVAAITASGGSTYYADSVKGRFTISRDNAKNTVYLQMNSEKPEDTAVYYCAARPTYYYSRTYDYWGQGTQVTVSS”: the “polyreactivity (PSR sort gate)” value was “low polyreactivity”.

Regarding “QVQLVESGGGLVQAGGSLRLSCAASGSTFTGNAMGWYRQAPGKERELVASINGSSGSTYYADSVKGRFTISRDNAKNTVYFQMNSLKPEDTAVYYCAKDSFLHFPRVGWVGLEYWGQGTQVTVSS”, the “polyreactivity (PSR sort gate)” value is on record as “low polyreactivity”.

“QVQLVESGGGLVQAGGSLRLSCAASGSTFTGNAMGWYRQAPGKERELVASIRRIGSPYYADSVKGRFTISRDNAKNTVDLQMISLKPEDTAVFYCAAAVKIRTPYQYGYWGQGTQVTVSS”: the “polyreactivity (PSR sort gate)” value is reported as “high polyreactivity”.

Take “QVQLVESGGGLVQAGGSLRLSCAASGSTFTGYAMGWYRPAPGKERELVAAISRSVGRTYYADSVKGRFTISRDNAKNTVYLQMNSLKPEDTAVYYCAADVYLTGSRNYYWGQGTQVTVSS”: the “polyreactivity (PSR sort gate)” value is “high polyreactivity”.

With “QVQLVESGGGLVQAGGSLRLSCAASGSTFTGYAMGWYRQAPGKEREFVATITKRGGRTYYADSVKGRFTISRDNAKNTVYLQMNSLKPEDTAVYYCARDQGKLVVPYDYWGQGTQVTVSS”, the “polyreactivity (PSR sort gate)” value is given as “high polyreactivity”.

With “QVQLVESGGGLVQAGGSLRLSCAASGSTFTGYAMGWYRQAPGKERELVASISYSGGSTYYADSVKGRFTISRDNAKNTVYLQMNSLKPEDTAVYYCNALQQYALSRYYWGQGTQVTVSS”, the “polyreactivity (PSR sort gate)” value was “high polyreactivity”.

Take “QVQLVESGGGLVQAGGSLRLSCAASGSTFTGYAMGWYRQAPGKEREMVAAISSDGITKYADSVKGRFTISRDNAKYTVYLQMNSLKQEDTAVYYCYAPRGSRRSYRRTEYYYWGQGTQVTVSS”: the “polyreactivity (PSR sort gate)” value is on record as “high polyreactivity”.

With “QVQLVESGGGLVQAGGSLRLSCAASGSTFTGYAMGWYRQAPGTERELVATINSGVSTYADSVKGRFTISRDNAKNTVYLQMNSLKPEDTAVYYCAADGLYYYQSGWIDAGYYTNGYWGQGTQVTVSS”, the “polyreactivity (PSR sort gate)” value is listed as “low polyreactivity”.

On to “QVQLVESGGGLVQAGGSLRLSCAASGSTFTINVMGWYRQAPGKERELVAAINGGGRTNYADSVKGRFTISRDNAKNTVYLQMNSLKPEDTAVYYCATRYSHNSGFDYWGQGTQVTVSS”, for which the “polyreactivity (PSR sort gate)” value is reported as “low polyreactivity”.

Take “QVQLVESGGGLVQAGGSLRLSCAASGSTFTIYAMGWYRQAPGKEREFVAAIDEDDGSTYYADSVKGRFTISRDNAKKTVYLQMNSLKPEDTAVYYCNADDIWAYAFDYWGQGTQVTVSS”: the “polyreactivity (PSR sort gate)” value is listed as “low polyreactivity”.

Regarding “QVQLVESGGGLVQAGGSLRLSCAASGSTFTIYAMGWYRQAPGKERELVAAISSGGGDTDYADSVKGRFTISRDNAKNTVYLQMNSLKPEDTAGYYCNAEGTSPRTGYDYCGQGTQVTVSS”, the “polyreactivity (PSR sort gate)” value was “low polyreactivity”.

In the case of “QVQLVESGGGLVQAGGSLRLSCAASGSTFTIYAMGWYRQAPGKERELVAAISSGGGDTDYADSVKGRFTISRDNAKNTVYLQMNSLKPEDTAVYYCNAEGTSPRTGYDYWGQGTQVTVSS”, the “polyreactivity (PSR sort gate)” value is “low polyreactivity”.

“QVQLVESGGGLVQAGGSLRLSCAASGSTFTKYAMGWYRQAPGKERELVAAITASGGNTYYADSVKGRFTISRDNAKKTVYLQMNSLKPEDTAVYYCAARQYRYKYDYWGQGTQVTVSS”: the “polyreactivity (PSR sort gate)” value is recorded as “high polyreactivity”.
